B1: recombinant MASP-2 (purified) (enzyme, human, UniProt O00187 16-686, looked up)
chain: TPLGPKWPEPVFGRLASPGFPGEYANDQERRWTLTAPPGYRLRLYFTHFDLELSHLCEYDFVKLSSGAKVLATLCGQESTDTERAPGKDTFYSLGSSLDITFRSDYSNEKPFTGFEAFYAAEDIDECQVAPGEAPTCDHHCHNHLGGFYCSCRAGYVLHRNKRTCSALCSGQVFTQRSGELSSPEYPRPYPKLSSCTYSISLEEGFSVILDFVESFDVETHPETLCPYDFLKIQTDREEHGPFCGKTLPHRIETKSNTVTITFVTDESGDHTGWKIHYTSTAQPCPYPMAPPNGHVSPVQAKYILKDSFSIFCETGYELLQGHLPLKSFTAVCQKDGSWDRPMPACSIVDCGPPDDLPSGRVEYITGPGVTTYKAVIQYSCEETFYTMKVNDGKYVCEADGFWTSSKGEKSLPVCEPVCGLSARTTGGRIYGGQKAKPGDFPWQVLILGGTTAAGALLYDNWVLTAAHAVYEQKHDASALDIRMGTLKRLSPHYTQAWSEAVFIHEGYTHDAGFDNDIALIKLNNKVVINSNITPICLPRKEAESFMRTDDIGTASGWGLTQRGFLARNLMYVDIPIVDHQKCTAAYEKPPYPRGSVTANMLCAGLESGGKDSCRGDSGGALVFLDSETERWFVGGIVSWGSMNCGEAGQYGVYTKVINYIPWIENIISDF
notes: also called Purified MASP-2

Columns and labels:
[1] = target: Purified SARS-CoV-2 N-His (SARS-CoV-2, UniProt P0DTC9 1-419); assay: SPR; purified proteins; who was immobilised and the conditions not given; settings: both partners purified
[2] = target: B1; assay: as above; settings: both partners purified

Binder	Kd [1]	Kd [2]
B1	518 nM	
SARS-CoV N protein (purified recombinant) (natural protein) not shown		268 nM

Reference: PMC9470675 (Signal Transduction and Targeted Therapy, 2022)
